Results published in PMC9482650, “Quantitative fragmentomics allow affinity mapping of interactomes” (Nature Communications, 2022).

How the values were obtained:
Assay in all cases: holdup assay
Parameters in all cases: key: below the threshold = too weak to quantify, mostly under pKd 3.1 to 4
Details in all cases: plain residues with an end cap or a label only (N-terminal biotin on a linker: gsgsgs; C-terminal amide)
[1] = molecular target: T1, NHERF3_4, Q5T2W1
T1 sequence (Q5T2W1 373-468, limits assumed, looked up): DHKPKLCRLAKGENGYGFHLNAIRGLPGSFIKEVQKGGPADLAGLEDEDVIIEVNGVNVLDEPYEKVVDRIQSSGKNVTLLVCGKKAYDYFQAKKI

[2] = molecular target: T2, HTRA4, P83105
T2 sequence (P83105 378-476, limits assumed, looked up): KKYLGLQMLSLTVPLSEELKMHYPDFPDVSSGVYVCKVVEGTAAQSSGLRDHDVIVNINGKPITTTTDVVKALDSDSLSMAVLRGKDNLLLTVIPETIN

[3] = molecular target: DLG2_2, Q15700
[4] = molecular target: LNX1_3, Q8TBB1
[5] = molecular target: GRIP2_3, Q9C0E4
[6] = molecular target: LDB3, O75112
[7] = molecular target: GRIP2_5, Q9C0E4
[8] = molecular target: PDLIM1, O00151
[9] = molecular target: FRMPD2_1, Q68DX3
[10] = molecular target: SCRIB_2, Q14160
[11] = molecular target: T3, LIN7B, Q9HAP6
T3 sequence (Q9HAP6 88-185, limits assumed, looked up): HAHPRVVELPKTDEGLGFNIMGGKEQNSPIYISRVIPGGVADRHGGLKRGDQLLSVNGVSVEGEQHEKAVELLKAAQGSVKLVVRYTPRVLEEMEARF

[12] = molecular target: T4, TX1BP3, O14907
T4 sequence (O14907 10-122, limits assumed, looked up): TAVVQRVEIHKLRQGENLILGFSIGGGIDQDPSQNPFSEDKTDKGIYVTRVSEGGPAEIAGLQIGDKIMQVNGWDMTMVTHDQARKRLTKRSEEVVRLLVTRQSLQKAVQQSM

[13] = molecular target: GRIP2_6, Q9C0E4
[14] = molecular target: MAST2, Q6P0Q8
[15] = molecular target: T5, MPP6, Q9NZW5
T5 sequence (Q9NZW5 125-219, limits assumed, looked up): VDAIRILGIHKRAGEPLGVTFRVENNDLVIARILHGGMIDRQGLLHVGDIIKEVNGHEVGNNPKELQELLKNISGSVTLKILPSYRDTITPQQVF

[16] = molecular target: T6, MPP2, Q14168
T6 sequence (Q14168 180-250, limits assumed, looked up): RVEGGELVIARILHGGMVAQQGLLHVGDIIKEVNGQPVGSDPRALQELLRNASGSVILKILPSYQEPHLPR

[17] = molecular target: GORASP2, Q9H8Y8
[18] = molecular target: T7, DLG3_1, Q92796
T7 sequence (Q92796 125-227, limits assumed, looked up): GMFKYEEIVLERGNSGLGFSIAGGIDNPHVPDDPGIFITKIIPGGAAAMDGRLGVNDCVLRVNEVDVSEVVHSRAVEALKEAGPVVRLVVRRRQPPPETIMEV

[19] = molecular target: T8, LRRC7, Q96NW7
T8 sequence (Q96NW7 1440-1537, limits assumed, looked up): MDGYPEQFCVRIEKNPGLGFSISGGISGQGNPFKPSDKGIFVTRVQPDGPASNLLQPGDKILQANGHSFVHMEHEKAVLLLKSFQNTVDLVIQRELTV

[20] = molecular target: ARHGEF12, Q9NZN5-2
[21] = molecular target: TJP1_2, Q07157
[22] = molecular target: Inadl_1, Q8NI35
[23] = molecular target: T9, NHERF3_1, Q5T2W1
T9 sequence (Q5T2W1 4-100, limits assumed, looked up): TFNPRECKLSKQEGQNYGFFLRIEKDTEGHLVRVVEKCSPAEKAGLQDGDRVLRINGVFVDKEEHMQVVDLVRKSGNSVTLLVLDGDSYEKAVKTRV

[24] = molecular target: T10, SNTB1, Q13884
T10 sequence (Q13884 107-205, limits assumed, looked up): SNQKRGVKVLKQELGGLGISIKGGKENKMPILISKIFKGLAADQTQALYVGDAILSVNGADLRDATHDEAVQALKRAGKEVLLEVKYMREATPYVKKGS

[25] = molecular target: T11, PDZRN3_1, Q9UPQ7
T11 sequence (Q9UPQ7 244-349, limits assumed, looked up): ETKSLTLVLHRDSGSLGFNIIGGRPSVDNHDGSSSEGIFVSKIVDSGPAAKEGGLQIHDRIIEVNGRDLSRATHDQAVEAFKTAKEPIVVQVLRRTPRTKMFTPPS

[26] = molecular target: DLG2_3, Q15700

Chain of MAST2, Q6P0Q8 (Q6P0Q8 1099-1202): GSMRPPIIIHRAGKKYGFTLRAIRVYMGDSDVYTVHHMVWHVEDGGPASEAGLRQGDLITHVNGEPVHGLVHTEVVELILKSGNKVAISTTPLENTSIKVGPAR
Chain of FRMPD2_1, Q68DX3 (Q68DX3 770-861): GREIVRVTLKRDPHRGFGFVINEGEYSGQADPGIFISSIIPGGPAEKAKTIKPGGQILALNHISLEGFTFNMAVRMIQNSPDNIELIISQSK
Chain of LDB3, O75112 (O75112 1-94): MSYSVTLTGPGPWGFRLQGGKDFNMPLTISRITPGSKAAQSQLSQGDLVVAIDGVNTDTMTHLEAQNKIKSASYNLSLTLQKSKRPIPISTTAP
Chain of GRIP2_6, Q9C0E4 (Q9C0E4 648-740): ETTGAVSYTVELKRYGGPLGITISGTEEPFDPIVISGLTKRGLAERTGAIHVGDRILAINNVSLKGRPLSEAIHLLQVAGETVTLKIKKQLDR
Chain of ARHGEF12, Q9NZN5-2 (Q9NZN5 other isoform, or with tags, fused parts or gaps): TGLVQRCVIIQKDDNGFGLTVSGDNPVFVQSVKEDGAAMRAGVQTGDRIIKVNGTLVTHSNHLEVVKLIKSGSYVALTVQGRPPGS
Chain of GRIP2_3, Q9C0E4 (Q9C0E4 238-339): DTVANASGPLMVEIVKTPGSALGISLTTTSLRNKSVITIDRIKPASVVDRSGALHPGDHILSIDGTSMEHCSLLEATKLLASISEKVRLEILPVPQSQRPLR
Chain of Inadl_1, Q8NI35 (Q8NI35 113-229): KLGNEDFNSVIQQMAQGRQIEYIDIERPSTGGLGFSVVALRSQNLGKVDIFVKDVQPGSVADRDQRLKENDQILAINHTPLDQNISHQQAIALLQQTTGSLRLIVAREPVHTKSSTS
Chain of GRIP2_5, Q9C0E4 (Q9C0E4 544-642): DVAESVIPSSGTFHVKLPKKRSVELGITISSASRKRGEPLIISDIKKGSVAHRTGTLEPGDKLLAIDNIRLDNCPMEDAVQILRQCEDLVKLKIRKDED
Chain of TJP1_2, Q07157 (Q07157 181-274): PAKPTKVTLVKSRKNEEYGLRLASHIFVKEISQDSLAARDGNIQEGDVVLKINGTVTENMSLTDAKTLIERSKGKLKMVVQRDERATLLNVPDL
Chain of LNX1_3, Q8TBB1 (Q8TBB1 500-596): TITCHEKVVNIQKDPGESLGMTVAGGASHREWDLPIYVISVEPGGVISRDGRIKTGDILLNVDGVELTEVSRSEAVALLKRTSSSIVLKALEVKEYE
Chain of PDLIM1, O00151 (O00151 1-87): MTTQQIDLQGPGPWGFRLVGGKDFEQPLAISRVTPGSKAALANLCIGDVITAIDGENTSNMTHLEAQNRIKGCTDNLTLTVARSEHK
Chain of SCRIB_2, Q14160 (Q14160 857-960): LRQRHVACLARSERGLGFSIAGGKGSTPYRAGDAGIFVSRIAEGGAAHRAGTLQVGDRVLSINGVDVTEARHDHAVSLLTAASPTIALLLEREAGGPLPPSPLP

VSVDDVRSTSQGLSSY [DFNB31_int, Q9P202]
pKd [1]: below the threshold
pKd [2]: below the threshold
pKd [3]: below the threshold
pKd [4]: below the threshold
pKd [5]: below the threshold
pKd [6]: below the threshold
pKd [7]: below the threshold
pKd [8]: below the threshold
pKd [9]: below the threshold
pKd [10]: below the threshold
pKd [11]: 3.48
pKd [12]: below the threshold
pKd [13]: below the threshold
pKd [14]: below the threshold
pKd [15]: 3.65
pKd [16]: below the threshold
pKd [17]: below the threshold
pKd [18]: below the threshold
pKd [19]: below the threshold
pKd [20]: below the threshold
pKd [21]: below the threshold
pKd [22]: below the threshold
pKd [23]: below the threshold
pKd [24]: below the threshold
pKd [25]: below the threshold
pKd [26]: 3.55
